We go through 2 substances from patent US20050215472A1.

The target of assay [1] is prostate specific membrane antigen (PSMA), full-length human (human) (UniProt Q04609). In words: cell-bound fraction of 111In mAb, average.
The target is the same in assay [2]. In words: cell-bound fraction of 111In mAb, PSMA-3T3 cells.
Assay [3] shares this target. Put plainly: cell-based or functional assay.

Several values for one entry are separate records, joined by “and”; a condition that tells them apart may be missing. Equal values may be shown once.

Sequence of prostate specific membrane antigen (PSMA), full-length human (human) (Q04609 whole entry): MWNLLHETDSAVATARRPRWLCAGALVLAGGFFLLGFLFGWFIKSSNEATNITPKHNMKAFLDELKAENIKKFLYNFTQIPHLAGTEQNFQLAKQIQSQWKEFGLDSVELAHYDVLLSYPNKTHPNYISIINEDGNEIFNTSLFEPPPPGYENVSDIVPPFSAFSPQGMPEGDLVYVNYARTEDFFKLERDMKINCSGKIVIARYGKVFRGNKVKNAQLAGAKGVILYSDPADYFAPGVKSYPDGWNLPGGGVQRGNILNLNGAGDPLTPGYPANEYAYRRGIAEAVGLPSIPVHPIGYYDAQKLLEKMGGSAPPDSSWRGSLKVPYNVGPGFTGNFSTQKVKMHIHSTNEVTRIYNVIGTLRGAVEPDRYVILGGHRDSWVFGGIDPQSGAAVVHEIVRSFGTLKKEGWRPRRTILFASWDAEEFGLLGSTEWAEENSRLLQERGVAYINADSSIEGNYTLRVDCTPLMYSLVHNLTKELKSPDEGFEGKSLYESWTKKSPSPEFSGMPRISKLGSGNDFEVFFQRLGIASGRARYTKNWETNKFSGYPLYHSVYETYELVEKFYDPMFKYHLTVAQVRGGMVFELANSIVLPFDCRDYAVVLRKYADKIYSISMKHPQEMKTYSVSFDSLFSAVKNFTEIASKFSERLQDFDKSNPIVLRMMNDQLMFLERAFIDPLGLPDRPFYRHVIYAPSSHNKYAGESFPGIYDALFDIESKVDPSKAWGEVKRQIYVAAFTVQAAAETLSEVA

Turning to “111In radiolabeled CHX-A''-DTPA mJ591 (antibody)”, in assay [1], the Immunoreactivity (%), average came to 56.7%. Further, in assay [2], the Immunoreactivity (%) was 58.5% and 54.9%.

With mAb J591 (antibody), in assay [3], the LD50, immunotoxin (Mab-Zap saporin) cytotoxicity on C4-2 cells came to 88.2 pM and the LD50, immunotoxin (Mab-Zap saporin) cytotoxicity on PSMA-3T3 cells amounted to 89 pM.
